In patent US9364516B2, “Treatment of fibrosis-related disorders using fibronectin binding proteins and polypeptides” (priority 2010, dated 2016):

Columns and labels:
[1] = biological target: T1, fibrinogen (Homo sapiens, UniProt P02671+P02675+P02679); assay: ELISA binding of pUR4 to ECM proteins: fibrinogen; conditions: plates coated 10 μg/mL, FIG. 7
T1 construct: purchased Enzyme Research Laboratories (South Bend, Ind.)
T1 sequence (P02671 20-629 limits assumed): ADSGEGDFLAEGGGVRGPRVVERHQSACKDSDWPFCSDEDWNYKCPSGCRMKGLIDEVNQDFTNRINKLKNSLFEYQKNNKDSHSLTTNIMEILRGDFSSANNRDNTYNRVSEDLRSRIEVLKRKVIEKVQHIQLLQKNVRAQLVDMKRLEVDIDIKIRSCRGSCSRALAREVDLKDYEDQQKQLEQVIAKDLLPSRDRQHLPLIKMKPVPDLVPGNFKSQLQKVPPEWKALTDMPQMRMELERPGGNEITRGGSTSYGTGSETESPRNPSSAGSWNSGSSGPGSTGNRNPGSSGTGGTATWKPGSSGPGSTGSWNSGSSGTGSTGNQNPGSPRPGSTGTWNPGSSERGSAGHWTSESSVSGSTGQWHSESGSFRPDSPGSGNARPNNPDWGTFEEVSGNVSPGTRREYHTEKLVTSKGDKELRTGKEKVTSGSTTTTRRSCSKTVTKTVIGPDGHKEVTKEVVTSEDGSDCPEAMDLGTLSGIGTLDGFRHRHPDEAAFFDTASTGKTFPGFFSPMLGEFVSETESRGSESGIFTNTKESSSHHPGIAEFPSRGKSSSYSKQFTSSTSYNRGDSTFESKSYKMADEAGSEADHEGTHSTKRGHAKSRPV
T1 sequence (P02675 31-491): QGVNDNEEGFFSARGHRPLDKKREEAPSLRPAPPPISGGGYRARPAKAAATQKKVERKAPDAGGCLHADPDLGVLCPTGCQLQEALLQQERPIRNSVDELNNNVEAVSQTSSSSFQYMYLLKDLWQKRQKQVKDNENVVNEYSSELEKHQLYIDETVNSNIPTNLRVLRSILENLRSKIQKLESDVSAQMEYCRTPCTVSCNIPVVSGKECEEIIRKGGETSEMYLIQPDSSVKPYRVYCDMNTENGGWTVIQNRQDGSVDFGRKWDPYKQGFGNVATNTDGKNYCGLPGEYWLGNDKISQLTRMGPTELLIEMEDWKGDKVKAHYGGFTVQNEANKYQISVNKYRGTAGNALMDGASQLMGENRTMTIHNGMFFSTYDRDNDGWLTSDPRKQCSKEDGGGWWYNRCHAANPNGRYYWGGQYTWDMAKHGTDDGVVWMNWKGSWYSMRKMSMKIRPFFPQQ
T1 sequence (P02679 27-453): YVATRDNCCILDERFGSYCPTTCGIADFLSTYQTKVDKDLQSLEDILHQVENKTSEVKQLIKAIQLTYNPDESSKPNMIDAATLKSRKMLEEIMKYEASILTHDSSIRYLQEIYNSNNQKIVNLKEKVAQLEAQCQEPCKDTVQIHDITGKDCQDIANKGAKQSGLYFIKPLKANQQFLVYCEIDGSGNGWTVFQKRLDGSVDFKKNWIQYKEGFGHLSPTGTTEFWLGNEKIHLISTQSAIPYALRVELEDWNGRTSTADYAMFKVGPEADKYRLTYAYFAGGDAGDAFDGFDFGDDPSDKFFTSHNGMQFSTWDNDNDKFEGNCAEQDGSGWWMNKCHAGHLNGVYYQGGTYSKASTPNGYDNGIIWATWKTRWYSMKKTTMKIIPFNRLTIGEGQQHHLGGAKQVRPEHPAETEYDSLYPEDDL
Protocol: (§1) FIG. 7 is a graph depicting the binding of pUR4 to ECM Proteins. 96-well plates were coated with 10 μg/mL type I collagen (COL), denatured type I collagen (dCOL), fibronectin (FN), laminin (LN), vitronectin (VN), or fibrinogen (FG) at 4° C. overnight. pUR4 was added to the wells and serially diluted. Bound pUR4 was detected as described herein. Measurements were done at 405 nm on a Wallac 1420 multilabel counter. Data represents the average of duplicate determinations, and the error bars the range.
(§2) 96-well tissue culture plates were coated with 10 μg/mL type I collagen, fibronectin, laminin, fibrinogen, or vitronectin overnight at 4° C. Denatured collagens were generated as described (George et al., “Fibronectins are Essential for Heart and Blood Vessel Morphogenesis but are Dispensable for Initial Specification of Precursor Cells,” Blood 90:3073-3081 (1997), which is hereby incorporated by reference in its entirety). Plates were blocked with 1% bovine serum albumin (BSA) in Tris buffered saline (TBS) for 1 hour, then washed with TBS. pUR4 was serially diluted into coated wells, then incubated at room temperature for 90 min. Wells were washed with TBS containing 0.1% Tween 20. […] After washing, peroxidase activity was quantified by using 2,2′-azino-bis-(3-ethylbenthiazoline-[…]). […]

[2] = system: laminin; assay: ELISA binding of pUR4 to ECM proteins: laminin; conditions: plates coated 10 μg/mL, FIG. 7
Protocol: as §1, §2

[3] = system: Rat aortic SMCs; assay: qRT-PCR of fibronectin and collagen I in SMC; format: cell-based; conditions: 500 nM, 24 h; PBS control set equal to 1; average of duplicates ± range
Protocol: mRNA was isolated from RASMs 24 hours after incubation with 500 nM pUR4 or III-11C control peptides using RNAzol as per the manufacturer's instructions (Invitrogen). cDNA was prepared using a Superscript First Strand cDNA kit as per the manufacturer's instructions (Invitrogen). Mouse carotid arteries were harvested and frozen in liquid nitrogen. RNA was isolated using Trizol and purified using a QIAgen RNeasy Micro Kit. RNA integrity was examined with an Agilent 2100 Bioanalyser using RNA6000 NanoAssay (Agilent Technology). Whole transcriptome amplification was performed using Qiagen's QuantiTect Whole Transcriptome Amplification Kit. Quantitative RT-PCR analyses were performed using ABI Prism 7900HT sequence detection system (Applied Biosystems). The qRT-PCR primers for 3 mouse genes were obtained from ABI: GADPH (4352932E), fibronectin (Mm01256744_m1), and collagen Ia1 (Mm00801666_g1). TaqMan probe chemistry was used according to the manufacturer's instructions. qRT-PCR reactions were run in triplicate for each sample. The data was normalized to the levels of GAPDH in each sample, and the results were averaged.

B1: pUR4: 49-mer peptide derived from the bacterial F1 adhesin, His tagged, SEQ ID NO:1; class I fibronectin polymerization inhibitor (peptide)
chain: MRGSHHHHHHGSKDQSPLAGESGETEYITEVYGNQQNPVDIDKKLPNETGFSGNMVETEDTKLN
modifications: His tag; Bacterial adhesin derived peptide pUR4
In the case of B1, the binding to fibrinogen [1] is reported as “does not bind”, the binding to laminin [2] is reported as “does not bind” and the “Col Ia1 mRNA, relative level” value [3] is reported as 1.42 ± 0.06. The “Fibronectin mRNA, relative level” value [3] was 1.43 ± 0.02.
